Molecular target: Kaposi's sarcoma-associated herpesvirus (KSHV) ORF68 protein (Kaposi's sarcoma-associated herpesvirus (KSHV))
Experiment: SEC

Kaposi's sarcoma-associated herpesvirus (KSHV) ORF68 protein (natural protein)
stoichiometry N: 5
